“And” between values parts separate entries of the source, which are not always exact repeats. Equal values may be shown once.

The record followed here is patent publication US20240368288A1 (HEMOGENYX PHARMACEUTICALS, published 2024).

The target of assay [1] is T1, human FLT3 (Fms Related Receptor Tyrosine Kinase 3) expressed on cells (human, UniProt P36888 27-993).
T1 sequence (looked up): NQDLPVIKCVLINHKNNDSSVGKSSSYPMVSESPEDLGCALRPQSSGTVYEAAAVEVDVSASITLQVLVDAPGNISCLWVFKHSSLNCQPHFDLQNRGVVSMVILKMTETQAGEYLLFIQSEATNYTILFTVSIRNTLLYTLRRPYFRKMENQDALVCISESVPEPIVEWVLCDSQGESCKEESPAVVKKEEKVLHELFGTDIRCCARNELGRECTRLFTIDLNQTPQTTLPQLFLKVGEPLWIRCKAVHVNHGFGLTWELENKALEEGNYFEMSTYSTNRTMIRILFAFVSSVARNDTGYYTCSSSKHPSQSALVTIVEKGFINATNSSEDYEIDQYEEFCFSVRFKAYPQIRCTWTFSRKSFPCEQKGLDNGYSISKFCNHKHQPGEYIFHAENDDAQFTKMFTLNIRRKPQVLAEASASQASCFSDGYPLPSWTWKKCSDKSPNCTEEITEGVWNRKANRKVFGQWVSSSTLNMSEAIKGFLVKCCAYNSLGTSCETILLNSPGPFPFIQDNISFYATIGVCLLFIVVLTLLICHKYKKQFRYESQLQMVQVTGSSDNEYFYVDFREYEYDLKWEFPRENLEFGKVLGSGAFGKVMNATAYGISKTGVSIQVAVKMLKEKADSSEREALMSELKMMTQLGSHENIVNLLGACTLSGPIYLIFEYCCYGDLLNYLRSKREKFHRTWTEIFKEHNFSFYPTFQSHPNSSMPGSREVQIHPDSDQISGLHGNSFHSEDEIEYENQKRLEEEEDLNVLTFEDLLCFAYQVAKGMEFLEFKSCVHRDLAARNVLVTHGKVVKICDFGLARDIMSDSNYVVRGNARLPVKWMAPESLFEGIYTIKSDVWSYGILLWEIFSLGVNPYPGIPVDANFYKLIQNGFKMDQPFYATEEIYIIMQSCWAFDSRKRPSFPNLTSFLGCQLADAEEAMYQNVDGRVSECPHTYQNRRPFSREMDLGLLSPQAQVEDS
As to the kind of experiment: cell-based or functional assay.

The target in assay [2] is T1, human FLT3 (Fms Related Receptor …). As to the kind of experiment: flow cytometry on FLT3+ REH cells. An excerpt: (§1) Cells were washed five times with flow buffer and stained with anti-human IgG lambda antibody conjugated to FITC (Southern Biotech 2070-02). Cells were stained with 7-AAD (7-AAD Viability Staining Solution, Biolegend 420404) followed by flow cytometry analysis.

The target of assay [3] is T2, human CD3 on the surface of T cells / Jurkat cells (human, UniProt P07766 23-207; P09693 23-182; P04234 22-171).
T2 construct: whole, on cells
T2 sequence (P07766 23-207, chain 1 of 3): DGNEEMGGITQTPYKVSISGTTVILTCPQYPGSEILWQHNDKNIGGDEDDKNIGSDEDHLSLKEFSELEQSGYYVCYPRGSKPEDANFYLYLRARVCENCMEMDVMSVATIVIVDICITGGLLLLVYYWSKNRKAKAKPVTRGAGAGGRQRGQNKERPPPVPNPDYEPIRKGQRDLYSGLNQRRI
T2 sequence (P09693 23-182, chain 2 of 3): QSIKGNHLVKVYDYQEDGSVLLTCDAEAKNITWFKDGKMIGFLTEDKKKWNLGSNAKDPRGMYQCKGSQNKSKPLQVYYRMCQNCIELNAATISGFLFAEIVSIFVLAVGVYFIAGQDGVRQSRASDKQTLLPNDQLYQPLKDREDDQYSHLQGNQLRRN
T2 sequence (P04234 22-171, chain 3 of 3): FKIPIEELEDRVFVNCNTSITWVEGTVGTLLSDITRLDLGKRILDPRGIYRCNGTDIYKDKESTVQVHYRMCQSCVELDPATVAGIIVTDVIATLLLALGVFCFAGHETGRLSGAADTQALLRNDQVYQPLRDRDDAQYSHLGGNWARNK
As to the kind of experiment: flow cytometry on CD3+ Jurkat cells.
From the text: as §1
Background: In flow cytometry, cells or beads pass a laser one at a time.

The target in assay [4] is T1, human FLT3 (Fms Related Receptor …). Briefly: flow cytometry on FLT3+ HL-60 cells. An excerpt: (§2) Cells were washed five times with flow buffer and stained with anti-human IgG lambda antibody conjugated to FITC (Southern Biotech 2070-02). Cells were stained with 7-AAD (7-AAD Viability Staining Solution, Biolegend 420404) followed by flow cytometry analysis. […] Binding of bispecific antibody to cells should directly correlate with FLT3 expression.

Assay [5] has the same target. As to the kind of experiment: flow cytometry on FLT3+ THP-1 cells.
From the text: as §2

Assay [6] deals with T2, human CD3 on the surface of T cells / …. Briefly: flow cytometry on CD3+ human T cells.
From the text: as §1

The target in assay [7] is T1, human FLT3 (Fms Related Receptor …). As to the kind of experiment: flow cytometry on FLT3+ MV4-11 cells.
From the text: as §2

The target is the same in assay [8]. Briefly: flow cytometry on FLT3+ NOMO-1 cells.
From the text: as §2

The target is the same in assay [9]. As to the kind of experiment: flow cytometry on FLT3+ MOLM-13 cells.
From the text: as §2

For assay [10] the target is unchanged. As to the kind of experiment: flow cytometry on FLT3+ OCI-AML cells.
From the text: as §2

In assay [11] the target is T2, human CD3 on the surface of T cells / …. As to the kind of experiment: flow cytometry on CD3+ primary T cells.
From the text: as §1

Assay [12] concerns the target T3, Recombinant Human CD3 epsilon Fc Chimera Protein (R&D, no. 9850-CD-050) (human, UniProt P07766 23-126).
T3 construct: Bought reagent; Fc part of the bought chimera not given
As to the kind of experiment: ELISA, plate coated with recombinant human CD3 epsilon Fc chimera. How it is done:
The plate was washed with wash buffer (PBS (Caisson Labs, no. PBL06)+0.05% Tween20 (ThermoFisher, no. 28320)) The plate was blocked with blocking buffer (PBS (Caisson Labs, no. PBL06)+1% (w/v) BSA (Rockland, no. BSA-50)+0.05% Tween20 (ThermoFisher, no 28320)) for two hours at room temperature (RT). Plate was washed twice with wash buffer. […] Plate was washed 4× with wash buffer. Plate was incubated with 100 μL per well of 1:200 goat anti-human lambda-HRP secondary antibody (SouthernBiotech, no. 2070-05) for one hour at RT. Plate was washed 4× with wash buffer. Plate was incubated with 100 μL per well of TMB Substrate (ThermoFisher Cat #34029) for 20 minutes protected from light. Stop solution (2N H₂SO₄) was added to each well. Absorbance of wells was recorded at 450 nm on an Envision plate reader (PerkinElmer). […] Variable slope (four parameters) curve was fit to the data and EC50 was used to compare binding affinities.

T3 sequence (P07766 23-126, change not shown): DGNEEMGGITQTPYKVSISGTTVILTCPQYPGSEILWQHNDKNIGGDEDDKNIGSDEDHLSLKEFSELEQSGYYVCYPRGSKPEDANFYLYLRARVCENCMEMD

B1: CD3xFLT3 bispecific antibody 118BA #3 (bispecific antibody, human IgG1, lambda)
heavy: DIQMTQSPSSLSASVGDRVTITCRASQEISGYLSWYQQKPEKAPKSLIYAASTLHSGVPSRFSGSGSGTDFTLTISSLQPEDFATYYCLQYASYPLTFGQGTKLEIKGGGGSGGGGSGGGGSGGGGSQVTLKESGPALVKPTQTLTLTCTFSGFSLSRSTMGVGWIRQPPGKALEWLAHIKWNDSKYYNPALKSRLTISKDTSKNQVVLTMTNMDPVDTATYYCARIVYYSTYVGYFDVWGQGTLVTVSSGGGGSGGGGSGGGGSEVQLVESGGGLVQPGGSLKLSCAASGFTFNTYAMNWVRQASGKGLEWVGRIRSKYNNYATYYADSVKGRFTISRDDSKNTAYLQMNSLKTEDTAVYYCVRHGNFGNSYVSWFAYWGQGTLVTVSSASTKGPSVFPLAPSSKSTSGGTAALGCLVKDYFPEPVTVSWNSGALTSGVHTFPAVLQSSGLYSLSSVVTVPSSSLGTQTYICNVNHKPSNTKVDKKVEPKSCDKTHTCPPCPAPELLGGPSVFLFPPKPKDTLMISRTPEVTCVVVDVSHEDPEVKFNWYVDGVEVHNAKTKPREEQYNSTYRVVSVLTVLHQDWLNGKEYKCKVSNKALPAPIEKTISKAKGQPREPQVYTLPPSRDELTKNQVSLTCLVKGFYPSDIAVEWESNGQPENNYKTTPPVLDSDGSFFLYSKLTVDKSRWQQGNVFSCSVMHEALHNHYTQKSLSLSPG
light: QAVVTQEPSFSVSPGGTVTLTCGSSTGAVTTSNYANWVQQTPGQAFRGLIGGTNKRSSGVPDRFSGSLLGDKAALTITGAQADDESDYYCALWYSNLWVFGGGTKLTVLGGQPKAAPSVTLFPPSSEELQANKATLVCLISDFYPGAVTVAWKADSSPVKAGVETTTPSKQSNNKYAASSYLSLTPEQWKSHRSYSCQVTHEGSTVEKTVAPTECS
notes: also called #3 WT
Usually EC50 stands for the concentration giving half of the maximal effect. Consider B1, for which the “EC50 of cytotoxicity against HL-60” value in assay [1] amounted to 0.014 nM. The “EC50 of cytotoxicity against MOLM-13” value in assay [1] was 0.0157 nM. For the same molecule, in assay [1], the “EC50 of cytotoxicity against MV4-11” value was 0.022 nM. In addition, the “EC50 of cytotoxicity against NOMO-1” value in assay [1] came out at 3 pM. Also, the “EC50 of cytotoxicity against OCI-AML” value in [1] was 2 pM. For the same molecule, the “EC50 of cytotoxicity against REH” value in assay [1] came out at 0.01 nM. Moreover, the “EC50 of cytotoxicity against REH cells” value in [1] is 10 pM and 6 pM. In [1], the “EC50 of cytotoxicity against THP-1” value was determined as 0.25 pM. Also, the EC50 in assay [2] is 0.5 nM and 0.87 nM and 0.6 nM; in assay [3], 4.18 nM; in [4] it was 1.02 nM; in assay [5], 5.74 nM; in assay [6], 13.8 nM; in assay [7] it was 6.33 nM. Besides, the EC50 in assay [8] is 6.75 nM; in assay [9], 0.4 nM; in [10], 1.86 nM; in [11], 14.2 nM; in assay [12] it was 0.011 µg/mL and 0.06 nM.
